This passage reports Score results from patent US20210275685A1.

Assay [1] has as its target human ADAM9 (Disintegrin and Metalloproteinase Domain-containing Protein 9), on cells (human) (UniProt Q13443). The assay can be described thus: IHC staining of human tumour tissue: NSCLC (ILS7115 D), Squamous Cell Carcinoma; antibody at 0.4 µg/mL.
The target is the same in assay [2]. The assay can be described thus: IHC staining of human tumour tissue: Prostate CA (ILS20758-D3); antibody at 0.4 µg/mL.
The target is the same in assay [3]. Nature of the assay: IHC staining of human tumour tissue: Gastric CA (ILS-450 A); antibody at 0.4 µg/mL.
The target is the same in assay [4]. The assay can be described thus: IHC staining of human tumour tissue: NSCLC (ILS10901), Adenocarcinoma; antibody at 0.4 µg/mL.
Assay [5] has the same target. Nature of the assay: IHC staining of human tumour tissue: Colon CA (ILS10341 B); antibody at 0.4 µg/mL.
Assay [6] shares this target. Nature of the assay: IHC staining of human tumour tissue: Colon CA (ILS10369 B); antibody at 0.4 µg/mL.
The target is the same in assay [7]. Nature of the assay: IHC staining of human tumour tissue: Colon CA (ILS11330 B); antibody at 0.4 µg/mL.
The target is the same in assay [8]. The assay can be described thus: IHC staining of human tumour tissue: NSCLC (ILS10108), Large Cell Carcinoma; antibody at 0.4 µg/mL.
Assay [9] shares this target. Nature of the assay: IHC staining of human tumour tissue: Colon CA (AGR-00237 B); antibody at 0.4 µg/mL.
The target is the same in assay [10]. Nature of the assay: IHC staining of human tumour tissue: Breast CA (USA-00329); antibody at 0.4 µg/mL.
The target is the same in assay [11]. Nature of the assay: IHC staining of human tumour tissue: NSCLC (ILS7223), Squamous Cell Carcinoma; antibody at 0.4 µg/mL.

Chain of human ADAM9 (Disintegrin and Metalloproteinase Domain-containing Protein 9), on cells (human) (Q13443 206-819): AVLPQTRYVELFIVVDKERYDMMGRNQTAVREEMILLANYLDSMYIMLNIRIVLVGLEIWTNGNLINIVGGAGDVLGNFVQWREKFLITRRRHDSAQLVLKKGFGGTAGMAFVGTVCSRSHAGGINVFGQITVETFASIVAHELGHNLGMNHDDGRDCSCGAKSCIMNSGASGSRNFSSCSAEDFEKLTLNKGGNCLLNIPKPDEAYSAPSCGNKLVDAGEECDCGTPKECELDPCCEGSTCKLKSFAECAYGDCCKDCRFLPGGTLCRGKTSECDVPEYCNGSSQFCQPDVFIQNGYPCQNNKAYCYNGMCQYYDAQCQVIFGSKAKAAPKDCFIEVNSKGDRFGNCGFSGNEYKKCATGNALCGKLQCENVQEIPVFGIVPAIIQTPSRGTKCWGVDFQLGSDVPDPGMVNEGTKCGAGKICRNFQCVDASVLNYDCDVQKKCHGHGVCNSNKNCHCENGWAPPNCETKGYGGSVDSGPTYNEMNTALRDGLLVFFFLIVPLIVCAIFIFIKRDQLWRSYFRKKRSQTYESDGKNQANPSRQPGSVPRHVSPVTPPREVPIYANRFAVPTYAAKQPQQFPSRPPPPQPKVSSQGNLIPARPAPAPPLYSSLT

B1: MAB-A (antibody, V domains shown)
VH: QVQLQQPGAELVKPGASVKLSCKASGYTFTSYWMHWVKQRPGQGLEWIGEIIPINGHTNYNEKFKSKATLTLDKSSSTAYMQLSSLASEDSAVYYCARGGYYYYGSRDYFDYWGQGTTLTVSS
VL: DIVLTQSPASLAVSLGQRATISCKASQSVDYDGDSYMNWYQQIPGQPPKLLIYAASDLESGIPARFSGSGSGTDFTLNIHPVEEEDAATYYCQQSHEDPFTFGGGTKLEIK
For the molecule B1, the Score in [1] amounted to 1; in assay [2] it was 3; in assay [3] it was 2; in assay [4], 3; in assay [5], 2; in [6], 1. Further, the Score in assay [7] was found to be 2; in [8] it was 3; in assay [9], 3; in assay [10], 3; in [11], 3.
